Data from paper PMC4460866, “A folded and immunogenic IgE-hyporeactive variant of the major allergen Phl p 1 produced in Escherichia coli” (BMC Biotechnology, 2015).
Where a chain is given by its changes, count along the chain named. Names and notes keep the numbering of the source.

Target: the molecule itself
Test: SEC; gel filtration of the purified tag-free proteins; elution volumes corresponding to approximately 20 kDa; data not shown

B1: C-terminal domain of Phl p 1.0102 (wild-type), GST tag removed (domain or fragment)
chain: KVTFHVEKGSNPNYLALLVKYVNGDGDVVAVDIKEKGKDKWIELKESWGAIWRIDTPDKLTGPFTVRYTTEGGTKTEAEDVIPEGWKADTSYESK
With B1 the “stoichiometry N” value was 2.

B2: IgE-hyporeactive (K8A, N11A, D55A) mutant of the C-terminal domain of Phl p 1.0102, GST tag removed (domain or fragment)
chain: B1 chain with K8A, N11A, D55A
B2 was tested, and the “stoichiometry N” value was 2.
